Assay results from paper PMC7057348.

Assays:
Assay in all cases: SPR; Biacore T200; omalizumab, Fabs and scFv immobilised on CM5 chips by amine coupling; IgE-Fc injected in a twofold dilution series (100-0.4 nM), 20 µl/min, 240 s association, 900 s dissociation; 25°C; 20 mM HEPES pH 7.4, 150 mM NaCl, 0.005% (v/v) surfactant P20; biphasic model with one higher-affinity and one lower-affinity interaction
[1] = biological target: FabXol (wild-type omalizumab Fab)
[2] = biological target: FabXol2 (omalizumab-derived Ser81Arg, Gln83Arg light-chain mutant Fab)
[3] = biological target: FabXol3 (omalizumab-derived Ser81Arg, Gln83Arg, Leu158Pro light-chain mutant Fab)
[4] = biological target: Omalizumab (intact anti-IgE monoclonal IgG1 antibody)
[5] = biological target: scFvXol (omalizumab-derived scFv)

In the case of “IgE-Fc (Fc region of immunoglobulin E) (domain or fragment)”, the koff1 (biphasic model) [1] is reported as 0.00056 s⁻¹, the koff2 (biphasic model) [1] is reported as 0.012 s⁻¹ and the kon1 (biphasic model) [1] is reported as 570000 M⁻¹ s⁻¹. The kon2 (biphasic model) [1] was 440000 M⁻¹ s⁻¹, the koff1 (biphasic model) [2] was 0.00045 s⁻¹ and the koff2 (biphasic model) [2] was 0.011 s⁻¹. It also gave a kon1 (biphasic model) [2] of 510000 M⁻¹ s⁻¹, a kon2 (biphasic model) [2] of 330000 M⁻¹ s⁻¹ and a koff1 (biphasic model) [3] of 0.00033 s⁻¹. It also gave a koff2 (biphasic model) [3] of 0.009 s⁻¹, a kon1 (biphasic model) [3] of 970000 M⁻¹ s⁻¹ and a kon2 (biphasic model) [3] of 270000 M⁻¹ s⁻¹. It also gave a koff1 (biphasic model) [4] of 0.0007 s⁻¹, a koff2 (biphasic model) [4] of 0.012 s⁻¹ and a kon1 (biphasic model) [4] of 330000 M⁻¹ s⁻¹. The kon2 (biphasic model) [4] was 290000 M⁻¹ s⁻¹, the koff1 (biphasic model) [5] was 0.00029 s⁻¹ and the koff2 (biphasic model) [5] was 0.0087 s⁻¹. For the same substance, the kon1 (biphasic model) [5] was 690000 M⁻¹ s⁻¹ and the kon2 (biphasic model) [5] was 310000 M⁻¹ s⁻¹.
